The RNAGym collection of RNA variant scans (doi:10.7554/elife.80360)

B1: CPEB3 Ribozyme (parent)
chain: GGGGGCCACAGCAGAAGCGUUCACGUCGCGGCCCCUGUCAGAUUCUGGUGAAUCUGCGAAUUCUGCUGU

Variants of: B1
Test: self-cleavage, relative activity (ratio to wild type); higher = more cleavage; co-transcriptional

Q: Which self-cleavage does the source give for GGGGGCCACAGCAGAAGCGUUCACGUCGCGGCCCCUGUCAGACUCUGGUGAAUCGGCGAAUUCUGCUGU [U43C U55G] here?
A: 0.388

Q: For GGGGGCCACAGCAGAAGCGUUCACGUCGCGGCCCCUGUCAGAGUCUGGUGAAUCUGCGAAUUUUGCUGU [U43G C63U], which self-cleavage is on record?
A: 0.751

Q: With GGGGGCCACAGCAGAAGCGUUCACGUCGCGGCCCCUGUCAGAGUCUGGUGAAUCUGCGAAUUAUGCUGU [U43G C63A] as the variant, how does the self-cleavage read?
A: 0.436

Q: With GGGGGCCACAGCAGAAGCGUUCACGUCGCGGCCCCUGUCAGAUACUGGUGAAUCUGCGAGUUCUGCUGU [U44A A60G] as the variant, how does the self-cleavage read?
A: 0.725

Q: For GGGGGCCACAGCAGAAGCGUUCACGUCGCGGCCCCUGUCAGAUACUGGUGAAUCUGCUAAUUCUGCUGU [U44A G58U], which self-cleavage is on record?
A: 0.951

Q: Which self-cleavage does the source give for GGGGGCCACAGCAGAAGCGUUCACGUCGCGGCCCCUGUCAGAUACUGGUGAAUCUGCAAAUUCUGCUGU [U44A G58A] here?
A: 0.963

Q: Which self-cleavage does the source give for GGGGGCCACAGCAGAAGCGUUCACGUCGCGGCCCCUGUCAGAGUCUGGUGAAUUUGCGAAUUCUGCUGU [U43G C54U] here?
A: 0.662

Q: Which self-cleavage does the source give for GGGGGCCACAGCAGAAGCGUUCACGUCGCGGCCCCUGUCAGACUCUGGUGAAUCUGCGAAUUUUGCUGU [U43C C63U] here?
A: 0.914

Q: Which self-cleavage does the source give for GGGGGCCACAGCAGAAGCGUUCACGUCGCGGCCCCUGUCAGAUAAUGGUGAAUCUGCGAAUUCUGCUGU [U44A C45A] here?
A: 0.886

Q: With GGGGGCCACAGCAGAAGCGUUCACGUCGCGGCCCCUGUCAGAUACUGGUGGAUCUGCGAAUUCUGCUGU [U44A A51G] as the variant, how does the self-cleavage read?
A: 0.936

Q: Which self-cleavage does the source give for GGGGGCCACAGCAGAAGCGUUCACGUCGCGGCCCCUGUCAGAUACUGGUGCAUCUGCGAAUUCUGCUGU [U44A A51C] here?
A: 0.939

Q: With GGGGGCCACAGCAGAAGCGUUCACGUCGCGGCCCCUGUCAGAUACUGGUGAAUCUGCGAAUACUGCUGU [U44A U62A] as the variant, how does the self-cleavage read?
A: 0.838

Q: For GGGGGCCACAGCAGAAGCGUUCACGUCGCGGCCCCUGUCAGAGUCAGGUGAAUCUGCGAAUUCUGCUGU [U43G U46A], which self-cleavage is on record?
A: 0.959

Q: With GGGGGCCACAGCAGAAGCGUUCACGUCGCGGCCCCUGUCAGAGUCUGGUGAAUCUGCGAAUUCUGCUGC [U43G U69C] as the variant, how does the self-cleavage read?
A: 1.03

Q: For GGGGGCCACAGCAGAAGCGUUCACGUCGCGGCCCCUGUCAGAGUCUGGUGAAUCUGCGAAUUCUGCUGA [U43G U69A], which self-cleavage is on record?
A: 0.954

Q: Which self-cleavage does the source give for GGGGGCCACAGCAGAAGCGUUCACGUCGCGGCCCCUGUCAGAGUCUGUUGAAUCUGCGAAUUCUGCUGU [U43G G48U] here?
A: 1.01

Q: With GGGGGCCACAGCAGAAGCGUUCACGUCGCGGCCCCUGUCAGACGCUGGUGAAUCUGCGAAUUCUGCUGU [U43C U44G] as the variant, how does the self-cleavage read?
A: 0.904

Q: For GGGGGCCACAGCAGAAGCGUUCACGUCGCGGCCCCUGUCAGACUCUGGUCAAUCUGCGAAUUCUGCUGU [U43C G50C], which self-cleavage is on record?
A: 0.915

Q: With GGGGGCCACAGCAGAAGCGUUCACGUCGCGGCCCCUGUCAGACUCUGGUUAAUCUGCGAAUUCUGCUGU [U43C G50U] as the variant, how does the self-cleavage read?
A: 0.99

Q: With GGGGGCCACAGCAGAAGCGUUCACGUCGCGGCCCCUGUCAGAGUCUGGUGAAUCCGCGAAUUCUGCUGU [U43G U55C] as the variant, how does the self-cleavage read?
A: 0.312

Q: For GGGGGCCACAGCAGAAGCGUUCACGUCGCGGCCCCUGUCAGAUACUGGUGAAUCUGCGAAUUCCGCUGU [U44A U64C], which self-cleavage is on record?
A: 0.76

Q: Which self-cleavage does the source give for GGGGGCCACAGCAGAAGCGUUCACGUCGCGGCCCCUGUCAGACUCUGGUGAAUCUGCCAAUUCUGCUGU [U43C G58C] here?
A: 0.936

Q: For GGGGGCCACAGCAGAAGCGUUCACGUCGCGGCCCCUGUCAGACUCUGGUGAAUCUGCGAAUGCUGCUGU [U43C U62G], which self-cleavage is on record?
A: 0.783

Q: For GGGGGCCACAGCAGAAGCGUUCACGUCGCGGCCCCUGUCAGAUACUGGUGACUCUGCGAAUUCUGCUGU [U44A A52C], which self-cleavage is on record?
A: 0.912

Q: For GGGGGCCACAGCAGAAGCGUUCACGUCGCGGCCCCUGUCAGAUACUGGUGAGUCUGCGAAUUCUGCUGU [U44A A52G], which self-cleavage is on record?
A: 0.988

Q: Which self-cleavage does the source give for GGGGGCCACAGCAGAAGCGUUCACGUCGCGGCCCCUGUCAGAUACUAGUGAAUCUGCGAAUUCUGCUGU [U44A G47A] here?
A: 1.01

Q: Which self-cleavage does the source give for GGGGGCCACAGCAGAAGCGUUCACGUCGCGGCCCCUGUCAGAUACUUGUGAAUCUGCGAAUUCUGCUGU [U44A G47U] here?
A: 1

Q: With GGGGGCCACAGCAGAAGCGUUCACGUCGCGGCCCCUGUCAGACUCUGAUGAAUCUGCGAAUUCUGCUGU [U43C G48A] as the variant, how does the self-cleavage read?
A: 1.02

Q: With GGGGGCCACAGCAGAAGCGUUCACGUCGCGGCCCCUGUCAGACUCUGGUGAAUCUUCGAAUUCUGCUGU [U43C G56U] as the variant, how does the self-cleavage read?
A: 0.638

Q: Which self-cleavage does the source give for GGGGGCCACAGCAGAAGCGUUCACGUCGCGGCCCCUGUCAGAUACUGGUAAAUCUGCGAAUUCUGCUGU [U44A G50A] here?
A: 0.962

Q: For GGGGGCCACAGCAGAAGCGUUCACGUCGCGGCCCCUGUCAGAGUCUGGUGAACCUGCGAAUUCUGCUGU [U43G U53C], which self-cleavage is on record?
A: 0.874

Q: Which self-cleavage does the source give for GGGGGCCACAGCAGAAGCGUUCACGUCGCGGCCCCUGUCAGAUACUGGUGAAUCUGCGAAUUGUGCUGU [U44A C63G] here?
A: 0.645

Q: Which self-cleavage does the source give for GGGGGCCACAGCAGAAGCGUUCACGUCGCGGCCCCUGUCAGAUACUGGUGAAUCUGCGAAUUUUGCUGU [U44A C63U] here?
A: 0.985

Q: With GGGGGCCACAGCAGAAGCGUUCACGUCGCGGCCCCUGUCAGAGUCUGGUGAAUCUGCGAAAUCUGCUGU [U43G U61A] as the variant, how does the self-cleavage read?
A: 0.701

Q: Which self-cleavage does the source give for GGGGGCCACAGCAGAAGCGUUCACGUCGCGGCCCCUGUCAGAGUCUGGUGAAUCUGCGAAGUCUGCUGU [U43G U61G] here?
A: 0.265

Q: Which self-cleavage does the source give for GGGGGCCACAGCAGAAGCGUUCACGUCGCGGCCCCUGUCAGAUACUGGUGAAUCUGCGAAUUCUGAUGU [U44A C66A] here?
A: 0.758

Q: Which self-cleavage does the source give for GGGGGCCACAGCAGAAGCGUUCACGUCGCGGCCCCUGUCAGAUACUGGUGAAUCGGCGAAUUCUGCUGU [U44A U55G] here?
A: 0.551

Q: Which self-cleavage does the source give for GGGGGCCACAGCAGAAGCGUUCACGUCGCGGCCCCUGUCAGACUCUGGUGAACCUGCGAAUUCUGCUGU [U43C U53C] here?
A: 0.855

Q: Which self-cleavage does the source give for GGGGGCCACAGCAGAAGCGUUCACGUCGCGGCCCCUGUCAGACUCUGGUGAAGCUGCGAAUUCUGCUGU [U43C U53G] here?
A: 0.978
